Results taken from patent publication US20220380473A1, “ANTI-GAL3 ANTIBODIES AND USES THEREOF” (TrueBinding, Inc., priority 2019, published 2022).
“Also recorded” adds a separate entry of the source.

Columns and labels:
[1] = tested on: Human peripheral blood mononuclear cells (PBMCs); assay: CMV antigen recall assay, IFN gamma; assay type: cell-based; settings: 10 ug/ml final, CMV 4 days, vs isotype control
Description: To assess the ability of Gal3-targeted antibodies with Gal3-TIM-3 blocking activity to enhance T-cell mediated responses, a CMV antigen recall assay was used. Human peripheral blood mononuclear cells (PBMCs) (Astarte, donor ID 230) were quickly thawed in 37 C water bath, resuspended in 20 ml of RPMI media with 10% FBS, and centrifuged at 1500 RPM for 5 min. Media was discarded pellet resuspended in 20 ml media and counted by […], and diluted to a final concentration of 4 million/ml in Serum free Media (Lonza). 50 ul of media plus cells (200,000 cells/well) were added to 60 inner wells of a 96 well round bottom plate, and incubated at 37 C for 30 min. Antibodies were added to serum free media to a stock concentration of 4× the final concentration (40 ug/ml). 50 ul of antibodies at 4× concentration were added directly to the PBMCS and incubated at 37 C for 30 min. After PBMCs were incubated with antibodies for 30 min, 100 ul of CMV (Astarte Biologics, Cat. #1004) at 2× concentration (1 ug/ml) directly to the cells and incubated for 4 days at 37 C. On Day 4, 10 ul of cell supernatant were collected to measure human IFN gamma concentration by ELISA via a human IFN-gamma ELISA kit (Invitrogen).

[2] = tested on: MBT-2 cells; assay: MBT-2 bladder tumor model, combination with anti-PD1 or anti-PD-L1; assay type: in vivo, mouse; settings: 20 mg/Kg i.p.
Description: To evaluate the potential for GAL3-TIM3 blocking antibodies to influence tumor biology, studies were conducted in mice bearing MBT-2 bladder tumor xenografts in combination with other antibodies targeting the immunomodulatory checkpoint molecules PD-1 and PD-L1. Briefly, 7-week old female C3H/HeJ mice (Jackson Laboratory) were anesthetized by inhalation anesthetic (3 to 5% Isoflurane in medical grade air) and 1×10^6 MBT-2 cells (Sekisui XenoTech, LLC) in 0.1 mL PBS were subcutaneously injected into the right flank by using a syringe with a 25-ga needle. 7 days after tumor implantation, mice were randomly assigned into six groups (n=9-10). Mice were administrated intraperitoneally with isotype control mIgG2b (BioXCell), anti-Gal3 (mIMT001), anti-PD1 (RMP1-14, BioXCell) plus mIgG2b, anti-PD1 (RMP1-14) plus mIMT001, anti-PDL1 (10F.9G2, BioXCell) plus mIgG2b, and anti-PDL1 (10F.9G2) plus mIMT001. Isotype control and anti-Gal3 antibodies were dosed at 20 mg/Kg on day 7, 9, 12, 14 and 16; anti-PD1 (RMP1-14 10 mg/Kg) or anti-PDL1 (10F.9G2, 5 mg/Kg) were dosed on day 8, 12, and 15. Tumor volumes and body weights were monitored twice per week. The animals were humanely sacrificed when tumor volumes or animal health reached IACUC-defined endpoints. Results were expressed as mean±SEM, with statistical analysis performed by two-way ANOVA.

[3] = tested on: mouse unilateral ureteral obstruction (UUO) model of kidney fibrosis; assay: Mouse UUO model of kidney fibrosis (Example 32); assay type: in vivo; settings: administered one day after UUO surgery
Text: To further evaluate the ability of GAL3-targeted antibodies with the ability to block TIM3-GAL3 assembly to impact fibrosis, we evaluated the impact of humanized IMT001-4 and IMT006-1 in the mouse unilateral ureteral obstruction (UUO) model of kidney fibrosis. Briefly, 8-week-old C57BL/6J male mice were divided into sham, UUO with HuIgG4−, and UUO with HuIMT001-4, HuIMT006-1, and UUO with metformin-treatment. HuIgG4, HuIMT001-4 and HuIMT006-1 were each administered by intraperitoneal route at 10 mg/kg Q2Dx3 whereas metformin (500 mg/kg/day) was administered to mice dissolved in drinking water. In some settings therapeutic antibodies or metformin was administered 1 day before UUO, whereas in other experiments therapeutic antibodies or metformin was administered 1 day after UUO. After 7 days of UUO surgery, mice were sacrificed, left kidney was harvested and fixed with 4% paraformaldehyde for immunohistochemistry (IHC) and blood was collected in Heparin-EDTA tubes for blood biochemistry analysis. Levels of plasma mouse TIM-1/KIM-1/HAVCR were measured using a commercial ELISA kit (Catalog #MKM100; R&D Systems, Minneapolis, Minn.) according to the protocol provided by the manufacturer. Levels of plasma mouse Lipocalin-2/NGAL were measured using a commercial ELISA kit (Catalog #DY1857; R&D Systems, Minneapolis, Minn.) according to the protocol provided by the manufacturer. 5 um sections of fixed kidney specimens were produced and processed for picosirius red staining as described for liver specimens above.
To evaluate the robustness of TIM3-GAL3 blocking antibodies in reducing kidney fibrosis, the ability of mIMT001 to inhibit fibrosis when administered one day after UUO surgery was evaluated. Following UUO surgery and treatment with isotype or control antibodies, kidney specimens were harvested and stained by IHC for Collagen 1a1 (Col1a1), a marker of kidney fibrosis.

[4] = tested on: B16F10 cells
Description: The animal experiments were conducted according to a protocol approved by the Molecular Medicine Research Institute Institutional Animal Care and Use Committee. C57BL/6 mice were placed in a facility accredited by the Association for Assessment and Accreditation of Laboratory Animal Care upon arrival. Thirty six of 7-week old female mice were randomly assigned into three groups (n=12). On day 0, B16F10 cells (2×10^5 in 0.1 mL PBS) were washed and resuspended in PBS before injection into the tail veins of mice using a syringe with a 27-ga needle. […] On day 21, the animals were humanely sacrificed and lung tissues were removed and fixed in a 10% buffered formaldehyde solution. The number of black metastatic colonies on one surface of the left lobes in the lungs were counted (FIG. 7B). Results were expressed as mean±SEM. The statistical analysis was performed in comparison with IgG control group using one-way ANOVA.

B1: IMT001: anti-Gal3 monoclonal antibody (Immutics); printed as mIMT001 (IMT001), murine (antibody, V domains shown)
VH: QIQLVQSGPELKKPGETVKISCKASGYTFTNYGMNWVKQAPGKGLKWMGWINTNTGEPTYVEEFKGRFAFSLETSASTAYLQINNLKNEDTATYFCAPYDNFFAYWGQGTLVTVSA
VL: DIVITQDELSNPVTSGESVSISCRSSKSLLYKDGKTYLNWFLQRPGQSPQLLIYLMSTHASGVSDRFSGSGSGTDFTLEISRVKAEDVGVYYCQQLVDYPLTFGAGTKLELK
[1]
  interferon-gamma secretion: significantly increased levels
[2]
  effect on tumor volume, single agent: did not exhibit any significant decrement in tumor volume; also recorded: did not reduce tumor volumes
[3]
  Col1a1 staining, image quantification: 9.17 intensity units
  Col1a1 staining, qualitative: reduced levels of Col1a1 staining
  overall reduction in Col1a1: 48%
[4]; 10 mg/Kg i.p., day 21, vs isotype control
  reduction of tumor number (black metastatic colonies): about 46%
[4]; 10 mg/Kg i.p., vs isotype control
  anti-tumor effect, tumor number: significant reduction of tumor number
[4]; vs isotype control
  tumor burden as indicated by lung weight: much less tumor burden
